Among the data in article PMC9925492, “Reduction of phenolics in faba bean meal using recombinantly produced and purified Bacillus ligniniphilus catechol 2,3-dioxygenase” (Bioresources and Bioprocessing, 2023) are Km and kcat values, retold here.

The series has as its system Cc1cccc(O)c1O. Put plainly: purified protein. The note with it: 10 mM Mn2+, 50 mM phosphate pH 7.5, 32.5 °C.

As for “BLC23O (Halalkalibacterium ligniniphilum)”, the Km is listed as 379 ± 86 µM and the kcat came to 0.13 ± 0.01 s⁻¹.
